These results are taken from publication PMC5595146 (Metallomics : integrated biometal science, 2017).

The chains are these.
B1: S. cerevisiae Fra2^Δ1–35 (domain or fragment, UniProt P53082 36-120, looked up)
chain: MPVTEQGLRERIESAIPQVYHIIVTDLSYGCGQSFDIVVVSDFFQGKSKLMRSRAVNKAVKEELQEIHAFSCKCYTEEEWSKIVV
B2: S. pombe Grx4 (WT) (natural protein, UniProt O74790 1-244, looked up)
chain: MSVEITFVEQFQEILQNGKEQIILLNFYAPWAAPCKQMNQVFDQFAKDTKNAVFLKIEAEKFSDIAESFDVNAVPLFVLIHGAKVLARISGANPQKLKAAIDEYIQPLISQISSTNASVETQVNSVQTTNTTSNTSKAPNGLDSELNERLSTLTNAHNVMLFLKGTPSEPACGFSRKLVGLLREQNVQYGFFNILADDSVRQGLKVFSDWPTFPQLYIKGEFVGGLDIVSEMIENGELQEMLPN
B3: S. pombe Grx4 (C172A) (natural protein, UniProt O74790 1-244, looked up)
chain: B2 chain with C172A

Where a chain is given by its changes, count along the chain named. Names and notes keep the numbering of the source.

In the series “S. pombe Grx4 (WT)” the target is B2. The series can be described thus: CD-monitored titration.
In series [1] the target is T1, S. pombe Php4 (WT), 6xHis-tagged (S. pombe, UniProt O14318 1-295).
T1 sequence (looked up): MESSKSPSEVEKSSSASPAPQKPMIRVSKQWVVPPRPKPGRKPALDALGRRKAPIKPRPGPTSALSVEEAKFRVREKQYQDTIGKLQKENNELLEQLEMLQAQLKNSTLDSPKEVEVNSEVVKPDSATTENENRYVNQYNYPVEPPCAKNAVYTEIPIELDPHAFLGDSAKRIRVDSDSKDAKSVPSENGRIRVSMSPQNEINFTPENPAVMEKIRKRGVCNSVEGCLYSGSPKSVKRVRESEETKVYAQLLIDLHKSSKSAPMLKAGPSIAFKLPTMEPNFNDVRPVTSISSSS
The series is described as follows: SPR.

The series “SEC” concerns the molecule itself. The series is described as follows: SEC. On the technique in general: Size exclusion chromatography separates by hydrodynamic size, large species first.

For B1, the binding result with S. pombe Grx4 (WT) was “binds”.

In series [1], B2 showed a Kd of 34.1 µM, a koff of 0.00219 s⁻¹ and a kon of 64.3 M⁻¹ s⁻¹. Besides, the binding result in the series “SEC” is on record as “binds”.

Take B3: in series [1], binding was put at a Kd of 897 µM, the koff is 0.00916 s⁻¹ and the kon worked out at 10.2 M⁻¹ s⁻¹.

Usually Kd stands for the equilibrium constant for the complex coming apart. A high value points to lower affinity. For orientation: koff means the rate constant with which the complex falls apart. The low end stands for slow dissociation, the high end for fast dissociation. The term kon denotes the rate constant with which the complex forms. High values mean faster complex formation, low ones slower complex formation.
